# Source: the nanobody polyreactivity screen of Harvey et al. (2022)
# Assay: yeast display, Sf9 membrane polyspecificity reagent, FACS + sequencing; frameworks hold sequencing errors
# In short: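 In a synthetic yeast display library (Saccharomyces cerevisiae BJ5465), nanobody expression was induced with galactose for 36–48 hours. FACS gates were set low and high (top ~1%) using anti-HA fluorescence for expression and streptavidin fluorescence for binding of the Sf9 membrane reagent. Each polyreactivity label is drawn from the gate of origin.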
row,Sequence,polyreactivity (PSR sort gate)
1,QVQLVESGGGLVQAGGSLRLSCAASGSIFWDYAMGWYRQSPGKERELVAAISGSGTSTYYADSVKGRFTISRDNAKNTVYLQMNSLKPEDTAVYYCAARIWTGRGRKLGNGYDYWGQGTQVTVSS,low polyreactivity
2,QVQLVESGGGLVQAGGSLRLSCAASGLIFVINARGWYRQAPGKERELVAAIDYSGGSTYYADSVKGRFTISRDNAKNTVYLQMNSLKPEDTAVYYCAASKIGYWGDYFRYYYWGQGTQVTVSS,low polyreactivity
3,QVQLVESGGGLVQAGGSLRLSCAASGFIIAYYAMGWDRQAPGKERELVAAINGGGGSRSYADSVKGRFTISRDNAKNTVYLQMNSLKPEDTAVFYCAADGSDDEENDYWGQGTQVTVSS,high polyreactivity
4,QVQLVESVGGLVLAGARLRLSCAASGRIFRFYAMGWYREAPGKERELVAAISSGGRTYSADSVKGRFTISRDNAKNTVYLQMNSLKPEDTAVYYCNTPYTVRGRYTSDYWGQGTQVTVSS,high polyreactivity
5,QVQLVESGGGLVQAGGSLRLSCAASGSTFSTNAMGWYRQAPGQERELVAAISSSSGRTYYADSVKGRFTISRDNAKNTVYLQMNSLKPEDTAVYYCAAANQGYRSGRKGVQRFDYWGQGTQVTVSS,high polyreactivity
6,QVQLVESGGGLVQAGGSLRLICAASGSTFIINAMGWYRQAPGKERELVARITQRGTSTFYADSVKGRFTISRDNAKNTVYLQMNSLKPDDTAVYYCAGRGSNSLGNKYDYWGQGTQVTVSS,high polyreactivity
7,QVQLVESGGGLVQAGGSLRLSCAASGRTFGWNARGWYRQAPGKEKELVAAISWSGTNTYYADSVKGRFTISRDNAKNTVYLQMNSLKPEDTAVYYCAARDWTGSWNGYWSCEYNYWGQGTQVTGSS,low polyreactivity
8,QDQIVESGGGLVQAGGSLRLSCAASGIIFWSYAMAWYRQAPGKERELVAAINTSGDSSYYADSVKGRFTISRDNAKNTVYLQMNSLKAEDTAVYYCAAKSSTRGDYWGQGTQVTVSS,low polyreactivity
9,QVQLVESGGGLVQAGGSLRLSCAASGRIFRYNAMGWYRQAPGKERELVAAITGCGGSTYYADSVKGRFTISRDNAKNTVYLQMNSLKPEDTAVYYCNTYTYYSRMDYWGQGTQVTVSS,high polyreactivity
10,QVQLVESGGGLVQAGGSPRLSCAASGRIFGVNAMGWYRQAPGKERELVAAISVSGDSTYYADSVKGRFTISRDNAKNTVYLQMNSLKPEDTAVYYCYAGYTFVPADLTDEYYWGQGTQVTVSS,low polyreactivity
11,QVQLVESGGGLVQAGGSLRLSCAASGYTFPFYTMGWYRQAPGKERELVAAISNSGTSTYYADSVKGRFTISRHNAKNTVYLQMNSLKPEDTAVYYSNAGRGTRFVYIDGMDYWGQGTQVTVSS,high polyreactivity
12,QVQLVESGGGLVQAGGSLRLSCASSGITFVVNAMVWYRQAPGKEREFVAAIDVRGGTTYYADSVKGRFTISRDNAKNSVYLQMNSLKPEDTAVYYCAASSTSGYDWGQGTQVTVSS,low polyreactivity
13,QVQLVESGGGLVQAGGSLRLSCAASGSTFRYNTMGWYRQAPGKERELVAAINISSSSTYYADSVKGRFTISRDNAKNTVYLQMNSLKPEDTAVYYCAKRDYVPIATDENDDYWGQGTQVTVSS,low polyreactivity
14,QVQLVETAAGLVQAGGSLRLSCAASGSIYYSYAMGGYRQAPGKERELVAAITDSGDSTYYADSVKGRFTISRDNAKNTVYLQMNSLKPEDTAVYYCAAGFYPYYYWGLGTQVTVSS,low polyreactivity
15,QVQLVESGGGLVQAGDSLRLSCAASGSIFVYYAMGWYRQAPGKERELVASISKTGGRTYYADSVKGRFTISRDNAKNTVFLQMNSLKPEDTAVYYCAARYTIRYKRYDYWGQGSQVTVSS,high polyreactivity
16,QVQHVESRGGLVQAGGSLRLSCAASGSTFCRYAMGWYRKAPGKEREFVARITYSSGRTYYADSVKGRFTISRDNAKNTVYLQMNSLKPDDTAVYYCAAGDYTRGPCGDYWGQGTQVTVSS,high polyreactivity
17,QVQLVESGGGLVQAGGSLRLSCAASGFTFYSYAMGWYRQAPGKERELVAAITQSGGSTYYADSVKGRFTISRDNAKNTVYLQMNSLKPEDTAVYYCAADIYNDYDYGYYYWGQGTQVTVSS,low polyreactivity
18,QVQLVESGGGLVQAGGSLRLTCAASGRTFYVNAMGWYRQAPGKEREFVAAISRRGGSTYYADSVKGRFTISRDNAKNTVYLQMNCLKPEDTAVYYCNAAYSSRYDYWGQGTQVTVSS,high polyreactivity
19,QVQLVESGGGLVQAGGILRLSCAASGLIFANNAMGWYRQAPGKERELVAAITGGGDGTYYADYVKGRFTISRDNAKNNVYFQMNSLKPEDTAVYYCAADYKYLGSEYCYWGQGTQVTVSS,low polyreactivity
20,QVQLVESGGGLVQAGGSLRLSCAASGIIFQGYVMGWYRQAPGKERELVAVISRTGGSTYYADSVKGRFTISRDNAKNTVYLQMNSLKPEDTAVYYSSAGTPRLRYLQGHRMNYWGKGTQVTVSS,high polyreactivity
21,QVQLVESGGGLVQAGGSLRLSCAASGFIFYIYAMGWYRQAPGKERELVAAFTSGGSTYYADSVKGRFTISRDNAKNTVYLQMNSLKPEDTAVYYCAAESYYGYDYWGQGTQVTVSS,low polyreactivity
22,QVQLVESGGGLVQAGGSLRLSCAASGITFQWYAMGWYRQAPGKERELVAGISSGGSTYYADSVKGRFTISRDNAKNTVYLQMNSLKPEDTAVYYCAADYGWYSPFYPSYKYEYWGQGTQVTVSS,low polyreactivity
23,QVQLVESGGGLVQAGGSLRLSCAASGFTFGGNDMGWYSQAPGKERELVAAIRSSGDTTYYADSVKGRFTISRDNAKNTVYLQMNSLKPEDTAVSYCAAYSHHQFSRSEYYYWGKGTQVTVSS,low polyreactivity
24,QVQLVESGGGLVQAGGSLRLSCAASGGTFYAYAMGWYRQAPGKERELVAAISRSGSTYYADSVKGRFTISRDNAKNTVYLQMNSLKPEDTAVYYCAARRARRDPVGYVYAKYGYWGQGTQVTVSS,high polyreactivity
25,QVQLVESGGGLVQAGGSLRLSCAASGSIFAYYAMGWYRQAPGKERELVAAITRGGRKYYADSVKGRFTISRDNAKNTVYLQMNILKPEYTAVYYCNARNVYFVSPNYDYWGQCTQVTVSS,high polyreactivity
26,QVQLEESGGGLVQAGGSLPLICAASGRIFATYAMGWYRQAPGKARELVAAISGRGSSTYYADSVKVRFTISRDNAKNTVYLQMNSLKPEDTAVSYCAAVVRHSFGYDSWGQCTQVTVSS,high polyreactivity
27,QVQLVESGGGLVQAGGSLRLSCAASGYTFQAYAMGWYRQAPGKERELVAAISFSSGSTYYADSVKGRFTISRDNAKNTVYLQMNSLKPVDTAVYYCATDYPYYGYDYWGHGTQVTVSS,low polyreactivity
28,QVQLVESGGGLVQAGGSLRLSCAASGIIFWWYDMGWYRQAPGTERELVAAISTGSRTNYADSVKGRFTISRDNAKNTVYLQMNSLKPEDTAVYYCAAEWVGFSGYYGSGYEMDYWGQGTQVTVSS,low polyreactivity
29,EEELVESGGGLVQAGGSLRLSCAASARISTVMLWDWYRQAPGKDRELVAAITKSGGSTYYADSVKGRFTISRDNAKNTVYLQMNSLIPEDTAVYYCAADRYAILFYAEDYWGQGTQETVSS,low polyreactivity
30,QVQLVESGGGLVQAGGSLRLSCAASGFTFSYYAMGWYRQAPGKERELVAAITSTGGSTYYADSVKGRFTISRDNAKNTVYLQMNSLKPEDTAVYYCATRGANRTGYKDDYWGQGTQVTVSS,high polyreactivity
